Laboratory results taken from US20230093708A1, “PROTEIN NANOPARTICLE DESIGN AND APPLICATION” (Duke University, priority 2020, published 2023).
Non-standard residues stand in square brackets, D forms with d. Phe(4-N3) = [N-]=[N+]=Nc1ccc(C[C@H](N)C(=O)O)cc1

Assay: DLS of native and crosslinked pAzF diblock constructs in PBS and GuHCl
Type: physicochemical
Conditions: for hydrodynamic radius (DLS): Table 12, crosslinked UAA5-40-K8D4 ligand constructs
Description: We wanted to thoroughly investigate the effects of pAzF-introduction as well as nanoparticle crosslinking on nanoparticle self-assembly. For this, we started by characterizing solely our five different ELP/RLP diblock architectures without any C-terminal functionalization. After expression and purification of the diblock constructs using ITC, the pAzF-containing constructs were crosslinked in solution by exposure to UV irradiation and characterized using dynamic light scattering (DLS). […] Generally, both processes seem to have increased the measured radii with this effect being more pronounced for the worm-forming constructs.
Apart from changes in nanoparticle morphology we were particularly interested in the effect pAzF-crosslinking had on their stability. […] GuHCl is a well-known denaturing agent that disrupts any inter- and intramolecular electrostatic forces and completely breaks down the quaternary, tertiary and secondary structure of most known proteins. Covalent bonds—such as the ones formed by pAzF-crosslinking—however remain unaffected by GuHCl, thus, the addition of this denaturing agent was expected to give us insights on the stability of our crosslinked nanoparticles. […] All native samples on the other hand resorted to complete unimerization upon exposure to GuHCl. As the Rh values for the crosslinked particles in GuHCl were generally larger than in PBS, the DLS data furthermore indicates a swelling behavior in the presence of the denaturing agent. This can most probably be attributed to the RLP core which is assumed to be completely collapsed in PBS but will however try to reach an elongated, random-coil morphology in the presence of GuHCl.
The first step of the characterization process was to produce crosslinked particles for the functionalized diblock constructs and to analyze whether the attachment of the ligands had caused any significant changes in particle size. […] Whatever the reason was, it had no effect on the crosslinking process as the particles still remained stable after GuHCl exposure.
Dynamic light scattering of cross-linkable protein nanoparticles was performed. […] However, these crosslinked particles remain assembled, actually growing slightly in size due to chain swelling of the core and corona in this new buffer. These novel scaffolds support various targeting domains and assemble into nearly identically sized nanoparticles between […] in hydrodynamic radius.

[1] = 15 μm in 7.2M GuHCl, crosslinked
[2] = 15 μm in 7.2M GuHCl, native (not crosslinked)
[3] = 15 μm in PBS, native (not crosslinked)

B1: UAA5-40: pAzF-containing sphere-forming diblock construct (protein)
chain: QYPSDGRGQYPSDGRGQYPSDGRGQYPSDGRGQYPSDGRGQYPSDGRGQYPSDGRGQYPSDGRGQYPSDGRGQYPSDGRGQYPSDGRGQYPSDGRGQYPSDGRGQYPSDGRGQYPSDGRGQYPSDGRGQYPSDGRGQYPSDGRGQYPSDGRGQYPSDGRG[Phe(4-N3)]QYPSDGRGQYPSDGRGQYPSDGRGQYPSDGRGQYPSDGRGQYPSDGRGQYPSDGRGQYPSDGRGQYPSDGRGQYPSDGRGQYPSDGRGQYPSDGRGQYPSDGRGQYPSDGRGQYPSDGRGQYPSDGRGQYPSDGRGQYPSDGRGQYPSDGRGQYPSDGRG[Phe(4-N3)]QYPSDGRGQYPSDGRGQYPSDGRGQYPSDGRGQYPSDGRGQYPSDGRGQYPSDGRGQYPSDGRGQYPSDGRGQYPSDGRGQYPSDGRGQYPSDGRGQYPSDGRGQYPSDGRGQYPSDGRGQYPSDGRGQYPSDGRGQYPSDGRGQYPSDGRGQYPSDGRG[Phe(4-N3)]QYPSDGRGQYPSDGRGQYPSDGRGQYPSDGRGQYPSDGRGQYPSDGRGQYPSDGRGQYPSDGRGQYPSDGRGQYPSDGRGQYPSDGRGQYPSDGRGQYPSDGRGQYPSDGRGQYPSDGRGQYPSDGRGQYPSDGRGQYPSDGRGQYPSDGRGQYPSDGRG[Phe(4-N3)]
- RH (nm) [1]: 52.1 ± 1.0 nm
- RH (nm) [2]: 5.9 ± 1.6 nm
- RH (nm) (15 μm in PBS, crosslinked): 34.3 ± 0.3 nm
- RH (nm) [3]: 29.8 ± 0.2 nm
- RH (nm) (Table 11, crosslinked UAA5-40-K8D4-ligand constructs, 0.7 μM in 7.2M GuHCl): 52.1 ± 1.0 nm
- RH (nm) (Table 11, crosslinked UAA5-40-K8D4-ligand constructs, 7 μM in PBS): 34.3 ± 0.3 nm
- hydrodynamic radius (DLS) (0.7 μM in 7.2M GuHCl): 52.1 ± 1.0
- hydrodynamic radius (DLS) (7 μM in PBS): 34.3 ± 0.3

B2: UAA2-40: pAzF-containing sphere-forming diblock construct, two pAzF residues per polypeptide chain (protein)
chain: QYPSDGRGQYPSDGRGQYPSDGRGQYPSDGRGQYPSDGRGQYPSDGRGQYPSDGRGQYPSDGRGQYPSDGRGQYPSDGRGQYPSDGRGQYPSDGRGQYPSDGRGQYPSDGRGQYPSDGRGQYPSDGRGQYPSDGRGQYPSDGRGQYPSDGRGQYPSDGRG[Phe(4-N3)]QYPSDGRGQYPSDGRGQYPSDGRGQYPSDGRGQYPSDGRGQYPSDGRGQYPSDGRGQYPSDGRGQYPSDGRGQYPSDGRGQYPSDGRGQYPSDGRGQYPSDGRGQYPSDGRGQYPSDGRGQYPSDGRGQYPSDGRGQYPSDGRGQYPSDGRGQYPSDGRG[Phe(4-N3)]
- RH (nm) [1]: 54.1 ± 2.0 nm
- RH (nm) [2]: 7.0 ± 1.1 nm
- RH (nm) (15 μm in PBS, crosslinked): 29.8 ± 0.3 nm
- RH (nm) [3]: 28.1 ± 0.2 nm
